Earlier results in patent publication US10544449B2, “Bis-biotinylation tags” (Pacific Biosciences of California, Inc., priority 2013, dated 2020).

Assays:
[1] = cited from earlier work
[2] = compared with streptavidin; cited from earlier work

Row | Substance | accumulation in kidney, share of injected dose ([1]; injected streptavidin) | time remaining in the kidneys ([1]; mice, rats, and rabbits) [days] | slower biotin off-rate [2] [fold]
1 | streptavidin | 15-20% | 3 to 4 | –
2 | traptavidin | – | – | ~10
